{"source": "patent US6376240", "target": "recombinant His6-RFLAT-1 (C-terminal portion of RFLAT-1, amino acids 59-288)", "sequence (chain, as listed by the source)": "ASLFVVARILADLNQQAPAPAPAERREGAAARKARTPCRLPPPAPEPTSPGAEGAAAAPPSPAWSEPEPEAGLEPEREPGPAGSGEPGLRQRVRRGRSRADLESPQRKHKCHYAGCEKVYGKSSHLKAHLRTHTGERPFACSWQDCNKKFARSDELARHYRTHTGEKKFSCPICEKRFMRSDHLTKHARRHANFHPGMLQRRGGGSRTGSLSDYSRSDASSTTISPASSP", "data": [{"protein": "ERK1 kinase (protein) MAAAAAQGGGGGEPRRTEGVGPGVPGEVEMVKGQPFDVGPRYTQLQYIGEGAYGMVSSAYDHVRKTRVAIKKISPFEHQTYCQRTLREIQILLRFRHENVIGIRDILRASTLEAMRDVYIVQDLMETDLYKLLKSQQLSNDHICYFLYQILRGLKYIHSANVLHRDLKPSNLLINTTCDLKICDFGLARIADPEHDHTGFLTEYVATRWYRAPEIMLNSKGYTKSIDIWSVGCILAEMLSNRPIFPGKHYLDQLNHILGILGSPSQEDLNCIINMKARNYLQSLPSKTKVAWAKLFPKSDSKALDLLDRMLTFNPNKRITVEEALAHPYLEQYYDPTDEPVAEEPFTFAMELDDLPKERLKELIFQETARFQPGVLEAP", "values": [{"measurement": "phosphorylation of recombinant RFLAT-1 by kinase (control)", "result": "As controls, ERK1 kinase does not"}]}]}
